According to the supplement of paper PMC9112550, “Optimization of the antimicrobial peptide Bac7 by deep mutational scanning” (BMC Biology, 2022):

Test system: Escherichia coli TOP10
Experiment: shrunken log2 fold change of peptide-encoding DNA abundance (4.5 h post-induction vs induction); higher = less antimicrobial activity (less host growth inhibition)
Settings: time post-induction: 4.5 h; library: site-saturation at positions 5, 18, 19, 20
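Note: peptides expressed intracellularly from a pBAD plasmid library in pooled LB shake-flask culture, induced with 0.3% L-arabinose, DNA abundance read by NGS, three biological replicates, DESeq2 with apeglm shrinkage.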

| Sequence | shrunken log2 fold change |
| --- | --- |
| RRIRGRPPRLPRPRPRPQQKPRP | 0.206 |
| RRIRGRPPRLPRPRPRPQRLPRP | 0.329 |
| RRIRGRPPRLPRPRPRPQVDPRP | 0.266 |
| RRIRGRPPRLPRPRPRPQVHPRP | 0.231 |
| RRIRGRPPRLPRPRPRPQVLPRP | 0.0422 |
| RRIRGRPPRLPRPRPRPQVTPRP | 0.0826 |
| RRIRGRPPRLPRPRPRPQWFPRP | 0.282 |
| RRIRGRPPRLPRPRPRPQWVPRP | 0.218 |
| RRIRGRPPRLPRPRPRPQYAPRP | 0.285 |
| RRIRGRPPRLPRPRPRPQYQPRP | -0.191 |
| RRIRGRPPRLPRPRPRPRADPRP | 1.17 |
| RRIRGRPPRLPRPRPRPRAGPRP | 1.36 |
| RRIRGRPPRLPRPRPRPRAPPRP | 1.05 |
| RRIRGRPPRLPRPRPRPRCCPRP | 0.474 |
| RRIRGRPPRLPRPRPRPRCFPRP | 0.698 |
| RRIRGRPPRLPRPRPRPREQPRP | 0.857 |
| RRIRGRPPRLPRPRPRPRETPRP | 1.86 |
| RRIRGRPPRLPRPRPRPREYPRP | 0.355 |
| RRIRGRPPRLPRPRPRPRFFPRP | 0.741 |
| RRIRGRPPRLPRPRPRPRGMPRP | 0.939 |
| RRIRGRPPRLPRPRPRPRGYPRP | 0.382 |
| RRIRGRPPRLPRPRPRPRHGPRP | 0.264 |
| RRIRGRPPRLPRPRPRPRHRPRP | 0.401 |
| RRIRGRPPRLPRPRPRPRIKPRP | 0.487 |
| RRIRGRPPRLPRPRPRPRIPPRP | 0.424 |

| Sequence | shrunken log2 fold change |
| --- | --- |
| RRIRGRPPRLPRPRPRPRIQPRP | 0.337 |
| RRIRGRPPRLPRPRPRPRMSPRP | 0.28 |
| RRIRGRPPRLPRPRPRPRNCPRP | 0.0949 |
| RRIRGRPPRLPRPRPRPRNFPRP | 0.197 |
| RRIRGRPPRLPRPRPRPRPHPRP | 0.51 |
| RRIRGRPPRLPRPRPRPRPQPRP | 0.863 |
| RRIRGRPPRLPRPRPRPRPTPRP | 0.906 |
| RRIRGRPPRLPRPRPRPRPWPRP | 0.77 |
| RRIRGRPPRLPRPRPRPRQIPRP | 0.684 |
| RRIRGRPPRLPRPRPRPRRFPRP | 0.402 |
| RRIRGRPPRLPRPRPRPRRRPRP | 1.02 |
| RRIRGRPPRLPRPRPRPRSSPRP | 0.128 |
| RRIRGRPPRLPRPRPRPRTFPRP | 1.1 |
| RRIRGRPPRLPRPRPRPRTLPRP | 0.477 |
| RRIRGRPPRLPRPRPRPRTRPRP | 1.01 |
| RRIRGRPPRLPRPRPRPRVAPRP | 0.816 |
| RRIRGRPPRLPRPRPRPRVFPRP | 1.02 |
| RRIRGRPPRLPRPRPRPRYSPRP | -0.173 |
| RRIRGRPPRLPRPRPRPSATPRP | 3.09 |
| RRIRGRPPRLPRPRPRPSCTPRP | 0.565 |
| RRIRGRPPRLPRPRPRPSDKPRP | 0.0485 |
| RRIRGRPPRLPRPRPRPSEDPRP | 0.71 |
| RRIRGRPPRLPRPRPRPSEPPRP | 0.413 |
| RRIRGRPPRLPRPRPRPSEWPRP | 0.393 |
| RRIRGRPPRLPRPRPRPSFCPRP | 0.348 |

| Sequence | shrunken log2 fold change |
| --- | --- |
| RRIRGRPPRLPRPRPRPSFQPRP | 0.198 |
| RRIRGRPPRLPRPRPRPSHCPRP | 0.204 |
| RRIRGRPPRLPRPRPRPSHNPRP | -0.189 |
| RRIRGRPPRLPRPRPRPSHQPRP | -0.0609 |
| RRIRGRPPRLPRPRPRPSHTPRP | -0.102 |
| RRIRGRPPRLPRPRPRPSICPRP | 0.207 |
| RRIRGRPPRLPRPRPRPSIDPRP | 1.84 |
| RRIRGRPPRLPRPRPRPSKMPRP | 0.0491 |
| RRIRGRPPRLPRPRPRPSKNPRP | 0.619 |
| RRIRGRPPRLPRPRPRPSMIPRP | 0.267 |
| RRIRGRPPRLPRPRPRPSNEPRP | 0.131 |
| RRIRGRPPRLPRPRPRPSNKPRP | -0.0675 |
| RRIRGRPPRLPRPRPRPSSSPRP | -0.296 |
| RRIRGRPPRLPRPRPRPSTIPRP | 0.235 |
| RRIRGRPPRLPRPRPRPSYTPRP | 0.307 |
| RRIRGRPPRLPRPRPRPTCIPRP | 0.351 |
| RRIRGRPPRLPRPRPRPTCSPRP | 0.991 |
| RRIRGRPPRLPRPRPRPTDGPRP | 0.361 |
| RRIRGRPPRLPRPRPRPTEIPRP | 0.284 |
| RRIRGRPPRLPRPRPRPTFIPRP | -0.0836 |
| RRIRGRPPRLPRPRPRPTFKPRP | 0.538 |
| RRIRGRPPRLPRPRPRPTFQPRP | 0.59 |
| RRIRGRPPRLPRPRPRPTFSPRP | 0.162 |
| RRIRGRPPRLPRPRPRPTFYPRP | 0.264 |
| RRIRGRPPRLPRPRPRPTGHPRP | 0.448 |
